From the supplement of paper PMC9112550, “Optimization of the antimicrobial peptide Bac7 by deep mutational scanning” (BMC Biology, 2022)

Test system: Escherichia coli TOP10
Test: shrunken log2 fold change of peptide-encoding DNA abundance (4.5 h post-induction vs induction); higher = less antimicrobial activity (less host growth inhibition)
Conditions: time post-induction: 4.5 h; library: site-saturation at positions 5, 18, 19, 20
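Further: peptides expressed intracellularly from a pBAD plasmid library in pooled LB shake-flask culture, induced with 0.3% L-arabinose, DNA abundance read by NGS, three biological replicates, DESeq2 with apeglm shrinkage.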

Sequence	shrunken log2 fold change
RRIRKRPPRLPRPRPRPFFMPRP	0.112
RRIRYRPPRLPRPRPRPVQVPRP	0.0039
RRIRRRPPRLPRPRPRPQHCPRP	-0.0448
RRIRIRPPRLPRPRPRPTWGPRP	0.0223
RRIRYRPPRLPRPRPRPVHRPRP	-0.462
RRIRVRPPRLPRPRPRPGAEPRP	0.271
RRIRARPPRLPRPRPRPLSDPRP	0.248
RRIRYRPPRLPRPRPRPQKEPRP	-0.245
RRIRIRPPRLPRPRPRPEEPPRP	-0.0444
RRIRSRPPRLPRPRPRPFVFPRP	-0.102
RRIRTRPPRLPRPRPRPMDWPRP	-0.05
RRIRYRPPRLPRPRPRPSDLPRP	-1.92
RRIRPRPPRLPRPRPRPRCNPRP	-0.0415
RRIRHRPPRLPRPRPRPTVNPRP	-0.144
RRIRQRPPRLPRPRPRPIGCPRP	0.0253
RRIRWRPPRLPRPRPRPNIMPRP	-0.296
RRIRARPPRLPRPRPRPREHPRP	0.376
RRIRCRPPRLPRPRPRPAENPRP	0.000461
RRIRQRPPRLPRPRPRPYYQPRP	-0.284
RRIRMRPPRLPRPRPRPQLVPRP	0.00959
RRIRDRPPRLPRPRPRPGSSPRP	0.0783
RRIRTRPPRLPRPRPRPLTIPRP	-0.315
RRIRSRPPRLPRPRPRPVQRPRP	0.363
RRIRSRPPRLPRPRPRPVEHPRP	-0.16
RRIRGRPPRLPRPRPRPAKWPRP	0.747

Sequence	shrunken log2 fold change
RRIRTRPPRLPRPRPRPRVQPRP	-0.2
RRIRARPPRLPRPRPRPLTSPRP	0.209
RRIRARPPRLPRPRPRPQQIPRP	0.218
RRIRSRPPRLPRPRPRPAGTPRP	1.67
RRIRFRPPRLPRPRPRPQWYPRP	-0.981
RRIRERPPRLPRPRPRPRKVPRP	0.107
RRIRWRPPRLPRPRPRPMDHPRP	-0.128
RRIRVRPPRLPRPRPRPLVVPRP	-0.21
RRIRERPPRLPRPRPRPRFGPRP	0.152
RRIRIRPPRLPRPRPRPQQWPRP	-0.421
RRIRVRPPRLPRPRPRPIHMPRP	-0.0179
RRIRERPPRLPRPRPRPPMQPRP	0.225
RRIRWRPPRLPRPRPRPNYSPRP	-0.15
RRIRSRPPRLPRPRPRPTLRPRP	-0.197
RRIRLRPPRLPRPRPRPKGCPRP	-0.0474
RRIRVRPPRLPRPRPRPMYKPRP	-0.608
RRIRERPPRLPRPRPRPLDVPRP	-0.304
RRIRQRPPRLPRPRPRPPYLPRP	-0.289
RRIRSRPPRLPRPRPRPCKCPRP	-0.359
RRIRARPPRLPRPRPRPLRMPRP	0.655
RRIRNRPPRLPRPRPRPDGWPRP	0.235
RRIRKRPPRLPRPRPRPPVEPRP	0.13
RRIRNRPPRLPRPRPRPYSNPRP	-0.155
RRIRPRPPRLPRPRPRPPGHPRP	0.371
RRIRFRPPRLPRPRPRPVVFPRP	-0.119

Sequence	shrunken log2 fold change
RRIRDRPPRLPRPRPRPLGRPRP	0.0897
RRIRNRPPRLPRPRPRPHIWPRP	-0.0306
RRIRQRPPRLPRPRPRPPAQPRP	0.0181
RRIRLRPPRLPRPRPRPNTVPRP	-0.0627
RRIRMRPPRLPRPRPRPDVHPRP	0.109
RRIRRRPPRLPRPRPRPWYEPRP	-0.16
RRIRWRPPRLPRPRPRPLLLPRP	0.152
RRIRQRPPRLPRPRPRPILCPRP	-0.0627
RRIRFRPPRLPRPRPRPDSCPRP	-0.011
RRIRWRPPRLPRPRPRPHPMPRP	0.408
RRIRERPPRLPRPRPRPIENPRP	0.0371
RRIRIRPPRLPRPRPRPRMQPRP	-0.199
RRIRWRPPRLPRPRPRPMMVPRP	0.0168
RRIRCRPPRLPRPRPRPNLDPRP	-0.478
RRIRLRPPRLPRPRPRPQLFPRP	0.131
RRIRIRPPRLPRPRPRPTGIPRP	-0.0849
RRIRFRPPRLPRPRPRPSQQPRP	-0.277
RRIRYRPPRLPRPRPRPPDNPRP	-0.185
RRIRQRPPRLPRPRPRPTADPRP	0.392
RRIRIRPPRLPRPRPRPLVLPRP	-0.458
RRIRFRPPRLPRPRPRPEYPPRP	-0.617
RRIRYRPPRLPRPRPRPAAYPRP	-0.387
RRIRVRPPRLPRPRPRPVDSPRP	0.0147
RRIRDRPPRLPRPRPRPHKLPRP	0.00695
RRIRGRPPRLPRPRPRPPWNPRP	0.411

Sequence	shrunken log2 fold change
RRIRHRPPRLPRPRPRPLCMPRP	-0.708
RRIRFRPPRLPRPRPRPMFNPRP	-0.797
RRIRFRPPRLPRPRPRPRYGPRP	-0.299
RRIRSRPPRLPRPRPRPGGHPRP	0.161
RRIRWRPPRLPRPRPRPYKSPRP	-0.144
RRIRCRPPRLPRPRPRPQVGPRP	-0.0906
RRIRGRPPRLPRPRPRPWHWPRP	0.424
RRIRNRPPRLPRPRPRPKLFPRP	0.371
RRIRDRPPRLPRPRPRPKVDPRP	-0.118
RRIRERPPRLPRPRPRPMGAPRP	0.0638
RRIRLRPPRLPRPRPRPLCSPRP	-0.223
RRIRERPPRLPRPRPRPRCQPRP	-0.0986
RRIRKRPPRLPRPRPRPGCSPRP	0.289
RRIRKRPPRLPRPRPRPIPRPRP	1.3
RRIRKRPPRLPRPRPRPGKAPRP	-0.0571
RRIRQRPPRLPRPRPRPIQNPRP	-0.11
RRIRLRPPRLPRPRPRPNLEPRP	0.0534
RRIRYRPPRLPRPRPRPNMVPRP	-0.0169
RRIRDRPPRLPRPRPRPAGMPRP	0.411
RRIRGRPPRLPRPRPRPAPGPRP	1.12
RRIRHRPPRLPRPRPRPMAIPRP	0.0143
RRIRSRPPRLPRPRPRPHCGPRP	-0.0953
RRIRLRPPRLPRPRPRPQRFPRP	-0.142
RRIRHRPPRLPRPRPRPIFKPRP	-0.195
RRIRHRPPRLPRPRPRPTYMPRP	-0.435

Sequence	shrunken log2 fold change
RRIRGRPPRLPRPRPRPTLWPRP	1.27
RRIRMRPPRLPRPRPRPYLLPRP	-0.204
RRIRCRPPRLPRPRPRPLEYPRP	-0.0414
RRIRWRPPRLPRPRPRPVGPPRP	0.281
RRIRNRPPRLPRPRPRPKAHPRP	0.18
RRIRERPPRLPRPRPRPVQYPRP	-0.418
RRIRARPPRLPRPRPRPNISPRP	0.0983
RRIRYRPPRLPRPRPRPGDYPRP	0.065
RRIRLRPPRLPRPRPRPMGHPRP	-0.0276
RRIRKRPPRLPRPRPRPRDWPRP	0.935
RRIRMRPPRLPRPRPRPEGRPRP	3.21
RRIRHRPPRLPRPRPRPAFFPRP	0.0438
RRIRMRPPRLPRPRPRPPNKPRP	0.604
RRIRARPPRLPRPRPRPSSMPRP	-0.144
RRIRKRPPRLPRPRPRPHSPPRP	0.16
RRIRMRPPRLPRPRPRPGDNPRP	-0.00193
RRIRGRPPRLPRPRPRPGDVPRP	0.347
RRIRERPPRLPRPRPRPDICPRP	-0.553
RRIRLRPPRLPRPRPRPFWKPRP	0.379
RRIRRRPPRLPRPRPRPEYHPRP	0.311
RRIRMRPPRLPRPRPRPLFTPRP	-0.171
RRIRTRPPRLPRPRPRPMQSPRP	-0.349
RRIRERPPRLPRPRPRPWLRPRP	0.0269
RRIRSRPPRLPRPRPRPTMLPRP	-0.119
RRIRCRPPRLPRPRPRPELVPRP	0.423
